{"source": "paper PMC5487381", "about": "“Thioredoxin A Is Essential for Motility and Contributes to Host Infection of Listeria monocytogenes via Redox Interactions” (Frontiers in Cellular and Infection Microbiology, 2017)", "binders": {"B1": {"name": "Listeria monocytogenes thioredoxin A (TrxA) (enzyme, Listeria monocytogenes EGD-e, UniProt P0A4L3 1-103, looked up)", "chain": "MVKEITDATFEQETSEGLVLTDFWATWCGPCRMVAPVLEEIQEERGEALKIVKMDVDENPETPGSFGVMSIPTLLIKKDGEVVETIIGYRPKEELDEVINKYV", "notes": "Thioredoxin A (TrxA, Lmo1233) of L. monocytogenes EGD-e, full-length ORF; pET30a(+) may add further vector-encoded residues between the His tag and the ORF; also called Lmo1233"}}, "biological_target": "T1, PrfA, the central virulence regulator of Listeria (Listeria monocytogenes EGD-e, UniProt P22262 1-237)", "T1 construct": "PrfA, virulence regulator of the Crp/Fnr family, L. monocytogenes EGD-e, full-length ORF; The methods describe the recombinant proteins in general, not PrfA by name", "T1 sequence": "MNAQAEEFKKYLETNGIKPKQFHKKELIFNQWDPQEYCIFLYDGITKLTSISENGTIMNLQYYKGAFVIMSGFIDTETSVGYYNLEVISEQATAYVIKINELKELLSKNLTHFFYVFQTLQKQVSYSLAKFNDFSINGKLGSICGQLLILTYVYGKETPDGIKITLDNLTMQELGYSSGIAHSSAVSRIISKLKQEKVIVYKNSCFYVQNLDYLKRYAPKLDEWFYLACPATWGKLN", "assay": "ITC; TrxA, TrxAox or TrxA active-site mutants (80-200 uM) in the syringe, PrfA, MogR, GmaR or MogR and GmaR (8-20 uM) in the cuvette; 25 C; 25 mM Tris-HCl pH 7.5, 100 mM NaCl; 15 uL injections, 300 s spacing; 1:1 binding model", "conditions": "both partners purified", "data": [{"binder": "B1", "values": [{"measurement": "binding result", "result": "binds"}]}]}
